Results as given in the RNAGym collection of RNA variant scans (doi:10.7554/elife.80360).

B1: HDV Ribozyme (parent)
chain: GGCCGGCAUGGUCCCAGCCUCCUCGCUGGCGCCGGCUGGGCAACAUUCCGAGGGGACCGUCCCCUCGGUAAUGGCGAAUGGGACCCA

Variants of: B1
Assay: self-cleavage, relative activity (ratio to wild type); higher = more cleavage; co-transcriptional

| Variant | self-cleavage |
| --- | --- |
| G68U G76A | 0.953 |
| U69G A77C | 0.369 |
| C66U G81A | 0.509 |
| C66U G81U | 0.382 |
| C66U G74C | 0.363 |
| C66A G76U | 0.981 |
| C66A G76C | 0.976 |
| G68U U72G | 0.359 |
| G68U U72A | 0.277 |
| G68C G82U | 0.352 |
| G68C G82A | 0.237 |
| G68A A78G | 0.727 |
| C66G G68A | 0.695 |
| G67A C75U | 0.189 |
| G67A C75A | 0.185 |
| G67A U79A | 0.982 |
| G67A U79C | 0.509 |
| U69A C85A | 0.767 |
| U69A C85G | 1.16 |
| G67C A71C | 0.657 |
| G67U G82U | 0.227 |
| U69C A70G | 0.889 |
| G67U G81C | 0.305 |
| G67C A83U | 0.469 |

| Variant | self-cleavage |
| --- | --- |
| U69A A78C | 0.208 |
| U69A A78U | 0.222 |
| C66U G68C | 0.753 |
| C66U G68A | 0.92 |
| C66U G68U | 0.935 |
| C66G G76C | 0.73 |
| C66G G76U | 0.88 |
| U69C G82U | 0.554 |
| U69C G82C | 0.361 |
| U69C U72G | 0.529 |
| G67U G73A | 0.451 |
| G67U G73U | 0.263 |
| G67A U69C | 0.927 |
| G67A U69G | 0.776 |
| G67A U69A | 1 |
| U69A C84U | 0.639 |
| U69A C84A | 0.935 |
| G68A G81A | 0.389 |
| G68A G81C | 0.175 |
| G67C C84A | 0.682 |
| G68A A87G | 0.995 |
| G68A A87U | 0.831 |
| G68A C86U | 0.965 |
| G68A C86A | 0.822 |

| Variant | self-cleavage |
| --- | --- |
| C66U G73A | 0.66 |
| C66U G73C | 0.528 |
| C66U G73U | 0.284 |
| G67U A71G | 1.12 |
| G67U A71C | 0.892 |
| C66U A78U | 0.309 |
| G68U U79C | 0.415 |
| G67U U79G | 0.516 |
| G67U U79A | 0.601 |
| G67U U79C | 0.231 |
| C66U A87U | 1.23 |
| G68U A78U | 0.237 |
| G68U A78G | 0.639 |
| C66U U72G | 0.582 |
| G67A U72G | 0.383 |
| G68A U69A | 1 |
| G67U G76U | 1.08 |
| G67U G76A | 1.18 |
| G67U G76C | 1.1 |
| G68C C84A | 1.06 |
| G68C C84G | 0.639 |
| G68A C75U | 0.0615 |
| G68C A70C | 0.63 |
| G68C A70G | 0.639 |

| Variant | self-cleavage |
| --- | --- |
| C66U C75A | 0.176 |
| C66U C75G | 0.141 |
| C66U C75U | 0.173 |
| G68A G80C | 0.286 |
| G68A G80A | 0.367 |
| G68A G80U | 0.251 |
| C66U A71C | 0.54 |
| G68A A83U | 0.424 |
| U69A U79G | 0.831 |
| U69A U79C | 0.499 |
| U69A G76C | 0.906 |
| U69A G76U | 0.95 |
| U69A G76A | 0.727 |
| G67C G81C | 0.286 |
| G67C G81U | 0.157 |
| G67C G81A | 0.369 |
| G68U U69G | 0.773 |
| G68U U69A | 0.912 |
| G68U G82A | 0.153 |
| G68U G82U | 0.265 |
| U69C C86G | 1.05 |
| U69C C86U | 0.727 |
| U69C C86A | 0.906 |
| G67A A87G | 0.936 |

| Variant | self-cleavage |
| --- | --- |
| G67A G82U | 0.348 |
| G67A G82A | 0.285 |
| C66A G73U | 0.171 |
| C66A G73C | 0.277 |
| C66A G73A | 0.63 |
| G67U G80A | 0.355 |
| G67U G80C | 0.128 |
| G68C A78U | 0.35 |
| G68U G74U | 0.604 |
| G68U G73A | 0.481 |
| U69A A77U | 0.591 |
| U69A A70U | 0.95 |
| C66U C85A | 1 |
| C66A G74U | 0.739 |
| C66A G74C | 0.293 |
| C66A G74A | 0.519 |
| G68C C85G | 0.733 |
| U69C G80U | 0.0898 |
| G67U C86G | 0.945 |
| G67U C86U | 0.933 |
| G67C C86G | 0.933 |
| G67A C86U | 0.845 |
| G67A C86A | 0.985 |
| G67A C86G | 0.895 |

| Variant | self-cleavage |
| --- | --- |
| U69C G73U | 0.489 |
| U69C G73C | 0.633 |
| G67A A71U | 0.725 |
| U69A A87G | 0.99 |
| U69A A87C | 1.01 |
| G68U A71C | 0.973 |
| G68U A71G | 1.04 |
| G68U A71U | 1.01 |
| C66G G73U | 0.389 |
| C66G G73A | 0.434 |
| G67U C84G | 0.609 |
| G67U C84A | 0.746 |
| C66A U79G | 0.804 |
| C66A G80A | 0.54 |
| C66A G80U | 0.304 |
| G68U A87G | 0.908 |
| G68U A87U | 1 |
| G68A A71G | 0.904 |
| G68A A71U | 0.867 |
| G67U A83C | 0.635 |
| G67U A83U | 0.469 |
| U69C A71G | 0.974 |
| C66G A70U | 1.08 |
| C66G A70G | 0.831 |

| Variant | self-cleavage |
| --- | --- |
| C66G A70C | 0.758 |
| U69C G81C | 0.231 |
| C66A U72A | 0.608 |
| C66A U72G | 0.332 |
| G67U C85U | 0.972 |
| U69A C86U | 0.739 |
| U69A C86A | 1 |
| U69A C86G | 1.09 |
| G68U C85U | 0.972 |
| U69A A71G | 0.731 |
| G67A G76C | 0.926 |
| G67A G76U | 0.965 |
| U69G A78U | 0.277 |
| U69C A83U | 0.431 |
| U69C A83G | 0.755 |
| U69G A83U | 0.465 |
| U69G A83C | 0.554 |
| C66G G74A | 0.471 |
| C66G G74U | 0.396 |
| U69C C85G | 0.988 |
| U69C C85A | 1.14 |
| C66A C86U | 0.9 |
| C66A C86A | 0.769 |
